Laboratory results: US20260048120A1

Target: Fas receptor (Fas, CD95) on human T cells (human) (UniProt P25445)
Assay: cell-based or functional assay

Chain of UniProt P25445 (P25445 26-335): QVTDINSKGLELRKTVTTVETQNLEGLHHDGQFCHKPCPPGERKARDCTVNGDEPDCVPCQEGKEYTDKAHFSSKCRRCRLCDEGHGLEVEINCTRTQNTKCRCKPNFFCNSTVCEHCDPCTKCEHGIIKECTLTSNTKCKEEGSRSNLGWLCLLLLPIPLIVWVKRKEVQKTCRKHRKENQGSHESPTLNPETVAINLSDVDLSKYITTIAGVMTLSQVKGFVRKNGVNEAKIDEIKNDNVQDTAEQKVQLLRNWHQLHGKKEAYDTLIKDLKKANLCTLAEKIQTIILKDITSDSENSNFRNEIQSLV

Substance: recombinant human FasL (BioLegend) (from UniProt P48023 134-281) (ligand)
- cell survival rate (Annexin V- & DAPI-) after about 16 h of 100 ng/mL FasL, SPPL3-KO Jurkat T cells: 63.1%
- cell survival rate (Annexin V- & DAPI-) after about 16 h of 100 ng/mL FasL, control (NT-KO) Jurkat T cells: 25.7%
- cell survival rate of the Cas9+ sgRNA-iBAR Jurkat T cell library after the first round of 10 ng/ml FasL: 4%
- cell survival rate of the Cas9+ sgRNA-iBAR Jurkat T cell library after the second round of 10 ng/ml FasL: 44.8%
- cell survival rate of the Cas9+ sgRNA-iBAR Jurkat T cell library after the third round of 10 ng/ml FasL: 55.5%
- share of CTV-labeled SPPL3-KO primary T cells in a 1:1 mix with CFSE-labeled NT-KO primary T cells after 16 h of 500 ng/mL FasL (49.2% without FasL): 75.3%
